Values belong to the binder of their own block, whether it stands above or below them.
Legend:
[1] = molecular target: T1, CXCR4-Rluc8 (human), P61073; assay: FRET or BRET; quantitative BRET saturation in HEK293A cells: fixed amount of Rluc8-tagged donor, increasing amounts of mCit-tagged acceptor, coelenterazine h 5 µM; no ligand, no further receptor coexpressed; settings: remark: other sources report otherwise
T1 chain: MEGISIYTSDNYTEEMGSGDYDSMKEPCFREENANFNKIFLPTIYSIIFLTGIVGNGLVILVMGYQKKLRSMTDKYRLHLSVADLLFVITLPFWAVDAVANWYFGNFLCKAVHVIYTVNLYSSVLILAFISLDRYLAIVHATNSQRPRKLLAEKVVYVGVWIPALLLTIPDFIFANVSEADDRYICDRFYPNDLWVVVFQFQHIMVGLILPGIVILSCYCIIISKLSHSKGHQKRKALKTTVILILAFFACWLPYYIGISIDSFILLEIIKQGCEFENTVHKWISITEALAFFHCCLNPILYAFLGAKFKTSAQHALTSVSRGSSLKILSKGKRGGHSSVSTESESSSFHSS

[2] = molecular target: T1, CXCR4-Rluc8 (human), P61073; assay: FRET or BRET; quantitative BRET saturation in HEK293A cells, CXCR4-Rluc8 and CXCR4-mCit, with S1P1 coexpressed, with CXCL12 (10 nM); settings: remark: other sources report otherwise
[3] = molecular target: T1, CXCR4-Rluc8 (human), P61073; assay: FRET or BRET; quantitative BRET saturation in HEK293A cells, CXCR4-Rluc8 and CXCR4-mCit, without S1P1, with CXCL12 (10 nM); settings: remark: other sources report otherwise
[4] = molecular target: T1, CXCR4-Rluc8 (human), P61073; assay: FRET or BRET; quantitative BRET saturation in HEK293A cells: fixed amount of Rluc8-tagged donor, increasing amounts of mCit-tagged acceptor, coelenterazine h 5 µM; no ligand, no further receptor coexpressed; settings: remark: other sources report otherwise
[5] = molecular target: T1, CXCR4-Rluc8 (human), P61073; assay: FRET or BRET; quantitative BRET saturation in HEK293A cells, CXCR4-Rluc8 and CXCR4-mCit, with S1P1 coexpressed, vehicle; settings: remark: other sources report otherwise
CXCR4-Rluc8 = molecular target: T2, CXCR4-Rluc8 (human, UniProt P61073 1-352); assay: FRET or BRET; quantitative BRET saturation in HEK293A cells: fixed amount of Rluc8-tagged donor, increasing amounts of mCit-tagged acceptor, coelenterazine h 5 µM; no ligand, no further receptor coexpressed; settings: partners not purified
T2 construct: C-X-C chemokine receptor type 4 (CXCR4), human cDNA from the Missouri S&T cDNA Resource Center; source: HEK293A, transiently transfected, in cells; not shown: Rluc8, C-terminal, kept

B1: CXCR4-mCit, P61073 1-352 (receptor)
chain: T1 chain
BRET50 [1]: 15.6
BRET50 [2]: 20.1
BRET50 [3]: 9.53
BRET50 [4]: 2.74
BRET50 [5]: 22.8

B2: mCit-tagged S1P1(TM4) (receptor, human)
chain: MGPTSVPLVKAHRSSVSDYVNYDIIVRHYNYTGKLNISADKENSIKLTSVVFILICCFIILENIFVLLTIWKTKKFHRPMYYFIGNLALSDLLAGVAYTANLLLSGATTYKLTPAQWFLREGSMFVALSASVFSLLAIAIERYITMLKMKLHNGNKRHRVFLLIGMCWLIAFTLGALPILGWNCLHNLPDCSTVLPLYHKHYILFCTTVFTLLLLSIVILYCRIYSLVRTRSRRLTFRKNISKASRSSEKSLALLKTVIIVLSVFIACWAPLFILLLLDVGCKVKTCDILFRAEYFLVLAVLNSGTNPIIYTLTNKEMRRAFIRIMSCCKCPSGDSAGKFKRPIIAGMEFSRSKSDNSSHPQKDEGDNPETIMSSGNVNSSS
notes: S1P1, human, the part before the printed TM4 stretch (SNNFRL...); TM4 of S1P3, human, put in place of TM4 of S1P1; S1P1, human, the part after the printed TM4 stretch (...ALSSCS); TM4 of S1P1 ([residues removed]) replaced with TM4 of S1P3; source: HEK293A, transiently transfected, in cells; not shown: mCitrine (mCit), C-terminal, kept
BRET50 (CXCR4-Rluc8): 7.19 ± 0.559

B5: mCit-tagged S1P1(TM3) (receptor, human)
chain: MGPTSVPLVKAHRSSVSDYVNYDIIVRHYNYTGKLNISADKENSIKLTSVVFILICCFIILENIFVLLTIWKTKKFHRPMYYFIGNLALSDLLAGVAYTANLLLSGATTYSLSPTVWFLREGSMFVALGASTCSLLAIAIERHLTMIKMRPYDASNNFRLFLLISACWVISLILGGLPIMGWNCISALSSCSTVLPLYHKHYILFCTTVFTLLLLSIVILYCRIYSLVRTRSRRLTFRKNISKASRSSEKSLALLKTVIIVLSVFIACWAPLFILLLLDVGCKVKTCDILFRAEYFLVLAVLNSGTNPIIYTLTNKEMRRAFIRIMSCCKCPSGDSAGKFKRPIIAGMEFSRSKSDNSSHPQKDEGDNPETIMSSGNVNSSS
notes: S1P1, human, the part before the printed TM3 stretch (KLTPAQ...); TM3 of S1P3, human, put in place of TM3 of S1P1; S1P1, human, the part after the printed TM3 stretch (...KLHNG); TM3 of S1P1 ([residues removed]) replaced with TM3 of S1P3; source: HEK293A, transiently transfected, in cells; not shown: mCitrine (mCit), C-terminal, kept
BRET50 (CXCR4-Rluc8): 7.24 ± 0.501

Further lines, results first:

BRET50 (CXCR4-Rluc8): 6.97 ± 0.473
B3: mCit-tagged S1P3(TM3) (receptor, human)
chain: MATALPPRLQPVRGNETLREHYQYVGKLAGRLKEASEGSTLTTVLFLVICSFIVLENLMVLIAIWKNNKFHNRMYFFIGNLALCDLLAGIAYKVNILMSGKKTFKLTPAQWFLREGSMFVALSASVFSLLAIAIERYITMLKMKLHNGNKRHRVFLLIGMCWLIAFTLGALPILGWNCLHNLPDCSTILPLYSKKYIAFCISIFTAILVTIVILYARIYFLVKSSSRKVANHNNSERSMALLRTVVIVVSVFIACWSPLFILFLIDVACRVQACPILFKAQWFIVLAVLNSAMNPVIYTLASKEMRRAFFRLVCNCLVRGRGARASPIQPALDPSRSKSSSSNNSSHSPKVKEDLPHTAPSSCIMDKNAALQNGIFCN
notes: S1P3, human, the part before the printed TM3 stretch (SLSPTV...); TM3 of S1P1, human, put in place of TM3 of S1P3; S1P3, human, the part after the printed TM3 stretch (...RPYDA); TM3 of S1P3 ([residues removed]) replaced with TM3 of S1P1; source: HEK293A, transiently transfected, in cells; not shown: mCitrine (mCit), C-terminal, kept

BRET50 (CXCR4-Rluc8): 12.7 ± 0.687
B4: mCit-tagged S1P3(TM4) (receptor, human)
chain: MATALPPRLQPVRGNETLREHYQYVGKLAGRLKEASEGSTLTTVLFLVICSFIVLENLMVLIAIWKNNKFHNRMYFFIGNLALCDLLAGIAYKVNILMSGKKTFSLSPTVWFLREGSMFVALGASTCSLLAIAIERHLTMIKMRPYDASNNFRLFLLISACWVISLILGGLPIMGWNCISALSSCSTILPLYSKKYIAFCISIFTAILVTIVILYARIYFLVKSSSRKVANHNNSERSMALLRTVVIVVSVFIACWSPLFILFLIDVACRVQACPILFKAQWFIVLAVLNSAMNPVIYTLASKEMRRAFFRLVCNCLVRGRGARASPIQPALDPSRSKSSSSNNSSHSPKVKEDLPHTAPSSCIMDKNAALQNGIFCN
notes: S1P3, human, the part before the printed TM4 stretch (NKRHRV...); TM4 of S1P1, human, put in place of TM4 of S1P3; S1P3, human, the part after the printed TM4 stretch (...NLPDCS); TM4 of S1P3 ([residues removed]) replaced with TM4 of S1P1; source: HEK293A, transiently transfected, in cells; not shown: mCitrine (mCit), C-terminal, kept
